11 sequences from publication PMC6498484 can be followed below.

This data set addresses T1, PoxCxrA17-150 (Penicillium oxalicum HP7-1) (UniProt A0A2H4WV05).
T1 sequence: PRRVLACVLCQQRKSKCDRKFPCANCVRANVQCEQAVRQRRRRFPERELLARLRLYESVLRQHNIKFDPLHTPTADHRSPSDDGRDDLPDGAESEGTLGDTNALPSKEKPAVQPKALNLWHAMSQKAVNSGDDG
As to the kind of experiment: EMSA. The following applies: EMSA: 20 mM Tris-HCl pH 8.0, 50 mM KCl, 0.1 mg/mL BSA, 5% glycerol, 1 mM DTT, 1 ug salmon sperm DNA, ~50 ng probe, 30 min at 30 C; footprinting at 30 C. A general note: Mobility shift assays separate free from complexed probe on a gel.
Consider “AGGAGACGAACAAATGAAAAACAGTTGGCCAACAATTCAACCAAGACCGGCTTCCCTGGAATTGCGGGGAGGGGAGAGTCGTGAAAGTGGATAAGGCTCCTTAATTTTTTTTTTCCCTTCCTCCTGGCCATCGTGTTTTATGGAGGTTCGCTTCCGTCTTGACTATCCGCCGTCGCACTCTTAGTCTCCCCGTTGACCCTCTTTTTCTTCACATCGTCAGATCGTGATCGTTGATCGTTCGGTGCTCTTCTGCTTCTTTTGCTGCTCACCTCCTCCTCCCCCCAGCTGA (double strand) [PBM_PoxClrB-6']”, for which the binding result is given as “binds”.
Regarding “AGGAGACGAACAAATGAAAAACAGTTGGCCAACAATTCAACCAAGACCGGCTTCCCTGGAATTGCGGGGAGGGGAGAGTCGTGAAAGTGGATAAGGCTCCTTAATTTTTTTTTTCCCTTCCTCCTGGCCATCGTGTTTTATGGAGGTTCGCTTCCGTCTTGACTATCCGCCGTCGCACTCTTAGTCTCCCCGTTGACCCTCTTTTTCTTCACATCGTCAGATCGTGATCGTTGATCGTTCGGTGCTCTTCTGCTTCTTTTGCTGCTCACCTCCTCCTCCCCCCAGCTGAGTCCTT (double strand) [PoxClrB-295]”, the binding result is “binds”.
Regarding “AGGATCTGATGAAAGGGGGGTGGTGGAGGAGATGAGGAAGGAATGGATGATGAACACCAGAGTCGAGGTGATGGCACCTCTTCTTATATAGTTGCTTCCTTGGGTGGATCCTGAAGCAATTCGCCTCTC (double strand) [PBM_POX05587-6']”, the binding entry is “binds”.
“CCCCTTTCATCAGATCCTCAAAGAACAAAATTGATCATCATCTCTTTTGATCTTTGATCCAATCCATCACA (double strand) [PBM1 probe]”: the binding result is reported as “binds”.
For “GACTCAGCTGGGGGGAGGAGGAGGTGAGCAGCAAAAGAAGCAGAAGAGCACCGAACGATCAACGATCACGATCTGACGATGTGAAGAAAAAGAGGGTCAACGGGGAGACTAAGAGTGCGACGGCGGATAGTCAAGACGGAAGCGAACCTCCATAAAACACGATGGCCAGGAGGAAGGGAAAAAAAAAATTAAGGAGCCTTATCCACTTTCACGACTCTCCCCTCCCCGCAATTCCAGGGAAGCCGGTCTTGGTTGAATTGTTGGCCAACTGTTTTTCATTTGTTCGTCTCCT (double strand) [PBM_PoxClrB-3']”, the binding entry is “binds”.
On to “GAGAGGCGAATTGCTTCAGGATCCACCCAAGGAAGCAACTATATAAGAAGAGGTGCCATCACCTCGACTCTGGTGTTCATCATCCATTCCTTCCTCATCTCCTCCACCACCCC (double strand) [PBM2 probe]”, for which the binding result is “no binding”.
Next, “GGTGAGCAGCAAAAGAAGCAGAAGAGCACCGAACGATCAACGATCACGATCTGACGATGTGAAGAAAAAGAGGGTCAACGGGGAGACTAAGAGTGCGACGGCGGATAGTCAAGACGGAAGCGAACCTCCATAAAACACGATGGCCAGGAGGAAGGGAAAAAAAAAATTAAGGAGCCTTATCCACTTTCACGACTCTCCCCTCCCCGCAATTCCAGGGAAGCCGGTCTTGGTTGAATTGTTGGCCAACTGTTTTTCATTTGTTCGTCTCCT (double strand) [PoxClrB-270]”: “no binding”; “TGGGGGGAGGAGGAGGTGAGCAGCAAAAGAAGCAGAAGAGCACCGAACGATCAACGATCACGATCTGACGATGTGAAGAAAAAGAGGGTCAACGGGGAGACTAAGAGTGCGACGGCGGATAGTCAAGACGGAAGCGAACCTCCATAAAACACGATGGCCAGGAGGAAGGGAAAAAAAAAATTAAGGAGCCTTATCCACTTTCACGACTCTCCCCTCCCCGCAATTCCAGGGAAGCCGGTCTTGGTTGAATTGTTGGCCAACTGTTTTTCATTTGTTCGTCTCCT (double strand) [PoxClrB-284]”: “no binding”.
In the case of “TGTGATGGATTGGATCAAAGATCAAAAGAGATGATGATCAATTTTGTTCTTTGAGGA (double strand) [PBM_POX05587-6]”, the binding result is recorded as “binds”.
For “TGTGATGGATTGGATCAAAGATCAAAAGAGATGATGATCAATTTTGTTCTTTGAGGATCT (double strand) [PBM_POX05587-3]”, the binding result is listed as “binds”.
For “TTGAGGATCTGATGAAAGGGGGGTGGTGGAGGAGATGAGGAAGGAATGGATGATGAACACCAGAGTCGAGGTGATGGCACCTCTTCTTATATAGTTGCTTCCTTGGGTGGATCCTGAAGCAATTCGCCTCTC (double strand) [PBM_POX05587-3']” the value was “binds”.
